Test [1] addresses T1, human LRP6 construct E1 (amino acids A20-D325) (human, UniProt O75581 20-325).
T1 construct: range 20-325; In the Fab crystal E1 arose from E1E2 degraded beyond Arg 335; residues Ala20 to Lys324 were traced; also called LRP6 E1; E1 domain
T1 sequence (looked up): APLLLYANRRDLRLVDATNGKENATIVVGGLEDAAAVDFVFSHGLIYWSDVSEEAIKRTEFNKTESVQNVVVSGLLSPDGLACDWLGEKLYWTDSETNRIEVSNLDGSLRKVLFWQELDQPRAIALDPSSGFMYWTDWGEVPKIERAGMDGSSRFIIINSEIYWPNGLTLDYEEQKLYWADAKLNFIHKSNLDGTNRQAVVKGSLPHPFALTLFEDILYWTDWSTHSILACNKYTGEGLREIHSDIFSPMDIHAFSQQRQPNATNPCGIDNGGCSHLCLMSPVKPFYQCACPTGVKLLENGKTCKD
Nature of the test: synthetic peptides, competition IC50 (FIG. 17A).

The target of a further test is T2, LRP6 E1E2 Asn185Ser (human, UniProt O75581 20-631).
T2 construct: range 20-631; also called LRP6 E1E2 N185S (analogue of LRP5 BMD mutation Asn198Ser)
T2 sequence (looked up): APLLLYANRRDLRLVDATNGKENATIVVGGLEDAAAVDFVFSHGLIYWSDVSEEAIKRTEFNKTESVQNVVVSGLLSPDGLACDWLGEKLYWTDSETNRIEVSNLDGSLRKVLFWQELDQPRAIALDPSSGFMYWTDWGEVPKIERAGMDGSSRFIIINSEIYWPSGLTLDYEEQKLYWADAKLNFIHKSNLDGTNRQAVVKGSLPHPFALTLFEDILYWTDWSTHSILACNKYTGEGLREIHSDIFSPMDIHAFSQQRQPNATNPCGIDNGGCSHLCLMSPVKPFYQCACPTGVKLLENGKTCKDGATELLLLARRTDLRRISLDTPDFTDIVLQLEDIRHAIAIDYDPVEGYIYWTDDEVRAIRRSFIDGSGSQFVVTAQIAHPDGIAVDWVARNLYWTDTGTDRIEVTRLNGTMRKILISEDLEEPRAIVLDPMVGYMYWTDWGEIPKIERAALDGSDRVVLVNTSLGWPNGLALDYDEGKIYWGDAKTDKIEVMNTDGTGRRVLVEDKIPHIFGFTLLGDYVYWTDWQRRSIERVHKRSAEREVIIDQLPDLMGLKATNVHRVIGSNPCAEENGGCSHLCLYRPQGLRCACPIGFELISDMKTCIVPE
Put plainly: BLI steady-state affinity. The protocol: (§1) Binding kinetics were measured by biolayer interferometry using an Octet Red instrument (ForteBio) as previously described (11). Streptavidin (SA) biosensors were loaded with biotinylated hLRP6 in 50 mMTris, pH 8, 300 mM NaCl, 5% (v/v) glycerol, and 0.05% (w/v) Triton X-100. The loaded biosensors were washed in the same buffer before carrying out association and dissociation measurements for the indicated times. The Kd of each interaction was determined using steady state-analysis through the Octet Red software v6.3. Each reported value represents an average of three or more experiments at different concentrations, with a fitted experimental curve for which the square of the correlation coefficient (R²) is above 0.96.

In another test the target is T3, LRP6 E1E2 Arg141Met (human, UniProt O75581 20-631).
T3 construct: range 20-631; also called LRP6 E1E2 R141M
T3 sequence (looked up): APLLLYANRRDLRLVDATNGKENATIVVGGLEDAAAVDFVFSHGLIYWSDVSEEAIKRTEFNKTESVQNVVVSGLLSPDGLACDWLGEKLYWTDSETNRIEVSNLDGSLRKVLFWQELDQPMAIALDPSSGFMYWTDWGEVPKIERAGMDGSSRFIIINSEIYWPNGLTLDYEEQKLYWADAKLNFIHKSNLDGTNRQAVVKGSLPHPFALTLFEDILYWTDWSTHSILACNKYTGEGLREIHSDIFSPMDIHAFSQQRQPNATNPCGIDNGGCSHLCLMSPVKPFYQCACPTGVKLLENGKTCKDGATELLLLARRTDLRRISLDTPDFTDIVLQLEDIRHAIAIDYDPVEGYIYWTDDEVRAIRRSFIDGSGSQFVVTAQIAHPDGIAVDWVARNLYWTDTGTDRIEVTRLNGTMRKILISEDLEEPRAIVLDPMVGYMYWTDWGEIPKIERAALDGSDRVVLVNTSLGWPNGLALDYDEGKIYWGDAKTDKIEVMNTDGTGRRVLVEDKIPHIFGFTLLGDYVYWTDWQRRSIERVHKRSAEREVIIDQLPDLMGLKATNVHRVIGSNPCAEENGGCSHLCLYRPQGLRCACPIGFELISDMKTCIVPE
Put plainly: BLI steady-state affinity. The procedure: as §1

For test [2], the target named is T4, human LRP6 construct E4 (T933-Q1253) (human, UniProt O75581 933-1253, biotinylated for biolayer interferometry).
T4 construct: range 933-1253; also called LRP6 E4
T4 sequence (looked up): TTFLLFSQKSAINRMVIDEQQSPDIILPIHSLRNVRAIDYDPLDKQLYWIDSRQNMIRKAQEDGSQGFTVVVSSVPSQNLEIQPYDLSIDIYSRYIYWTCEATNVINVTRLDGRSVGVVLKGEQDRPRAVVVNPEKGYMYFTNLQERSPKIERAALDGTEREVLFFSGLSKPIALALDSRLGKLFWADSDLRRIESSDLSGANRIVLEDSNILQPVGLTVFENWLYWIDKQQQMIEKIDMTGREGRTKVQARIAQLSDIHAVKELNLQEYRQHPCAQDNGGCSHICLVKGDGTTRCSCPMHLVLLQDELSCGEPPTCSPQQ
Put plainly: BLI, biotinylated LRP6 on streptavidin tips. The procedure: as §1
Purified receptors contained individual β-propeller-EGF-like units (E1, E2, or E4), two β-propellers (E1E2 or E3E4), or four β-propellers (E1E4))—as follows: […]
(In general: Biolayer interferometry detects binding as a change in optical thickness at a sensor tip.)

For test [3], the target named is T5, human LRP6 construct E1E2 (amino acids A20-E631) (human, UniProt O75581 20-631, biotinylated for biolayer interferometry).
T5 construct: range 20-631; also called LRP6 E1E2
T5 sequence (looked up): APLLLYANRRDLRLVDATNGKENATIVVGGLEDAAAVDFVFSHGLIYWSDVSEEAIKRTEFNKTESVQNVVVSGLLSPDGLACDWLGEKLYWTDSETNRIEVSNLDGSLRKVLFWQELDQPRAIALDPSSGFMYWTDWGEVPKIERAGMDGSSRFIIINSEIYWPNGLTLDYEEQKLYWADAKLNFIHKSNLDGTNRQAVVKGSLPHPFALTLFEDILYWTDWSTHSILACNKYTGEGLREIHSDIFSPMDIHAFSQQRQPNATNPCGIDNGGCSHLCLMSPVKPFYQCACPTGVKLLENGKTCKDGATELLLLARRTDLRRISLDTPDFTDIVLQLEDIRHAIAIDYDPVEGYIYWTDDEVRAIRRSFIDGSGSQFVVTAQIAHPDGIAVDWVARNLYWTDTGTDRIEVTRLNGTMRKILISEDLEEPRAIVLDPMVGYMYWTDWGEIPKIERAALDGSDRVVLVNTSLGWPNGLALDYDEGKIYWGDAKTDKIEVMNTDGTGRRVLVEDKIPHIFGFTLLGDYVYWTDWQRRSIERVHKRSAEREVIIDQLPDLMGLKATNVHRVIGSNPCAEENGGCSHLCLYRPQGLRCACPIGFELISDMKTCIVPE
Nature of the test: BLI (Octet Red), biotinylated LRP6 on streptavidin tips, steady state. The procedure:
as §1

Test [4] concerns the target T6, human LRP6 construct E3E4 (amino acids E631-Q1253) (human, UniProt O75581 631-1253, biotinylated for biolayer interferometry).
T6 construct: range 631-1253; also called LRP6 E3E4
T6 sequence (looked up): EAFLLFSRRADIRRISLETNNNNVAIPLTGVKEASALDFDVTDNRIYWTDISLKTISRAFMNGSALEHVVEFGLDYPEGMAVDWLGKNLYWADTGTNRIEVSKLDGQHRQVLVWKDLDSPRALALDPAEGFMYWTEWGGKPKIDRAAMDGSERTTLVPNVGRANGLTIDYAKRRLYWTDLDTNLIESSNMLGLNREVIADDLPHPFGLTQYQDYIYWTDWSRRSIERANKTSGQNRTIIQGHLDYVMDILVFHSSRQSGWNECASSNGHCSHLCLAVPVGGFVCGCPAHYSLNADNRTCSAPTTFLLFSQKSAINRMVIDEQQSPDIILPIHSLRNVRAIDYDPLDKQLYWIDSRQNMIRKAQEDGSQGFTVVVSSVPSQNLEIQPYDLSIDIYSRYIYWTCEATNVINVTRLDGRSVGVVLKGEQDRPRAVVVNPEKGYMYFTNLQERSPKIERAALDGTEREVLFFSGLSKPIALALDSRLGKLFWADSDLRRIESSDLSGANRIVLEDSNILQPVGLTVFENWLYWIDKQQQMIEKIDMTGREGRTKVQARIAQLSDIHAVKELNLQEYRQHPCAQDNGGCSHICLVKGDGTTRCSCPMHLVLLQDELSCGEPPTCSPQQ
The description is as above. The protocol:
as §1

In the case of NSNA [Dkk1 peptide lacking three residues from the C-terminus], in test [1], the binding result was “no binding”.
On to AIKN [Dkk1 peptide lacking three residues from the N-terminus], for which the binding result in test [1] is reported as “no binding”.

B1: Dkk1 (wild type) (ligand, human, UniProt O94907 32-266, looked up)
chain: TLNSVLNSNAIKNLPPPLGGAAGHPGSAVSAAPGILYPGGNKYQTIDNYQPYPCAEDEECGTDEYCASPTRGGDAGVQICLACRKRRKRCMRHAMCCPGNYCKNGICVSSDQNHFRGEIEETITESFGNDHSTLDGYSRRTTLSSKMYHTKGQEGSVCLRSSDCASGLCCARHFWSKICKPVLKEGQVCTKHRRKGSHGLEIFQRCYCGEGLSCRIQKDHHQASNSSRLHTCQRH
notes: also called Dickkopf 1; human Dkk1
As a reminder, the Kd is the constant that tells how readily two partners part at equilibrium. A low value points to a tighter complex. For B1, the entries for the “fold loss in affinity against wild-type LRP6 E1E2” value with LRP6 E1E2 Asn185Ser and in the test with LRP6 E1E2 Arg141Met were 183 fold and 29 fold, respectively. Besides, the binding result in test [2] is listed as “no binding”. In addition, the dissociation constant (Kd) in test [3] worked out at 22 nM; in test [4], 51 nM.

Source of the values: patent US20140235820A1, “METHODS AND COMPOSITIONS FOR MODULATING THE Wnt PATHWAY” (Genentech, Inc., priority 2010, published 2014).
